Assay [1] has as its target human B7-H4 expressed on cells (human) (UniProt Q7Z7D3). Kind of assay: saturation binding, flow cytometry on 624mel/B7-H4 cells; negative control used as background. For orientation: Flow cytometry measures light scatter and fluorescence of single cells or particles in a stream.
Assay [2] has the same target. Kind of assay: flow cytometry on 624mel/B7-H4 cells, negative control antibody; signal subtracted as background from all other points.

Chain of human B7-H4 expressed on cells (human) (Q7Z7D3 other isoform, or with tags, fused parts or gaps limits assumed): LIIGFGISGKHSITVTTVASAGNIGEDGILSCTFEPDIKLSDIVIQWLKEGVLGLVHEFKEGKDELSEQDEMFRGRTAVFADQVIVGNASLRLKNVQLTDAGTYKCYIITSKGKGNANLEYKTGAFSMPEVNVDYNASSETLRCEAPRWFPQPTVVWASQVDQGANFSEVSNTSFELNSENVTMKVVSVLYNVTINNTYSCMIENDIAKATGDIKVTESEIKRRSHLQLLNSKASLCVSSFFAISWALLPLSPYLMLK

In the case of “negative control antibody (anti-PD-1 antibody)”, the average signal (MFI) in assay [1] was 245 MFI. In assay [2], this substance came in with an MFI (average background signal) of 245 MFI.
